From IntAct's records for PubMed 18273061

B1: Vascular endothelial growth factor receptor 1 (Homo sapiens), P17948 (parent)
chain: MVSYWDTGVLLCALLSCLLLTGSSSGSKLKDPELSLKGTQHIMQAGQTLHLQCRGEAAHKWSLPEMVSKESERLSITKSACGRNGKQFCSTLTLNTAQANHTGFYSCKYLAVPTSKKKETESAIYIFISDTGRPFVEMYSEIPEIIHMTEGRELVIPCRVTSPNITVTLKKFPLDTLIPDGKRIIWDSRKGFIISNATYKEIGLLTCEATVNGHLYKTNYLTHRQTNTIIDVQISTPRPVKLLRGHTLVLNCTATTPLNTRVQMTWSYPDEKNKRASVRRRIDQSNSHANIFYSVLTIDKMQNKDKGLYTCRVRSGPSFKSVNTSVHIYDKAFITVKHRKQQVLETVAGKRSYRLSMKVKAFPSPEVVWLKDGLPATEKSARYLTRGYSLIIKDVTEEDAGNYTILLSIKQSNVFKNLTATLIVNVKPQIYEKAVSSFPDPALYPLGSRQILTCTAYGIPQPTIKWFWHPCNHNHSEARCDFCSNNEESFILDADSNMGNRIESITQRMAIIEGKNKMASTLVVADSRISGIYICIASNKVGTVGRNISFYITDVPNGFHVNLEKMPTEGEDLKLSCTVNKFLYRDVTWILLRTVNNRTMHYSISKQKMAITKEHSITLNLTIMNVSLQDSGTYACRARNVYTGEEILQKKEITIRDQEAPYLLRNLSDHTVAISSSTTLDCHANGVPEPQITWFKNNHKIQQEPGIILGPGSSTLFIERVTEEDEGVYHCKATNQKGSVESSAYLTVQGTSDKSNLELITLTCTCVAATLFWLLLTLFIRKMKRSSSEIKTDYLSIIMDPDEVPLDEQCERLPYDASKWEFARERLKLGKSLGRGAFGKVVQASAFGIKKSPTCRTVAVKMLKEGATASEYKALMTELKILTHIGHHLNVVNLLGACTKQGGPLMVIVEYCKYGNLSNYLKSKRDLFFLNKDAALHMEPKKEKMEPGLEQGKKPRLDSVTSSESFASSGFQEDKSLSDVEEEEDSDGFYKEPITMEDLISYSFQVARGMEFLSSRKCIHRDLAARNILLSENNVVKICDFGLARDIYKNPDYVRKGDTRLPLKWMAPESIFDKIYSTKSDVWSYGVLLWEIFSLGGSPYPGVQMDEDFCSRLREGMRMRAPEYSTPEIYQIMLDCWHRDPKERPRFAELVEKLGDLLQANVQQDGKDYIPINAILTGNSGFTYSTPAFSEDFFKESISAPKFNSGSSDDVRYVNAFKFMSLERIKTFEELLPNATSMFDDYQGDSSTLLASPMLKRFTWTDSKPKASLKIDLRVTSKSKESGLSDVSRPSFCHSSCGHVSEGKRRFTYDHAELERKIACCSPPPDYNSVVLYSTPPI
B2: Protein sprouty homolog 2 (Homo sapiens), O43597 (parent)
chain: MEARAQSGNGSQPLLQTPRDGGRQRGEPDPRDALTQQVHVLSLDQIRAIRNTNEYTEGPTVVPRPGLKPAPRPSTQHKHERLHGLPEHRQPPRLQHSQVHSSARAPLSRSISTVSSGSRSSTRTSTSSSSSEQRLLGSSFSSGPVADGIIRVQPKSELKPGELKPLSKEDLGLHAYRCEDCGKCKCKECTYPRPLPSDWICDKQCLCSAQNVIDYGTCVCCVKGLFYHCSNDDEDNCADNPCSCSQSHCCTRWSAMGVMSLFLPCLWCYLPAKGCLKLCQGCYDRVNRPGCRCKNSNTVCCKVPTVPPRNFEKPT

Variants of: B1
Settings: with cbl_human CBL

effect of a mutation on the interaction	Variant
increasing interaction	V1331N

Variants of: B1
Settings: with cbl_human CBL
Remark: another data set of the same source

effect of a mutation on the interaction	Variant
increasing interaction	L1332R

Variants of: B2
Settings: with cbl_human CBL

effect of a mutation on the interaction	Variant
disrupting interaction	MEARAQSGNGSQPLLQTPRDGGRQRGEPDPRDALTQQVHVLSLDQIRAIRNTAEYTEGPTVVPRPGLKPAPRPSTQHKHERLHGLPEHRQPPRLQHSQVHSSARAPLSRSISTVSSGSRSSTRTSTSSSSSEQRLLGSSFSSGPVADGIIRVQPKSELKPGELKPLSKEDLGLHAYRCEDCGKCKCKECTYPRPLPSDWICDKQCLCSAQNVIDYGTCVCCVKGLFYHCSNDDEDNCADNPCSCSQSHCCTRWSAMGVMSLFLPCLWCYLPAKGCLKLCQGCYDRVNRPGCRCKNSNTVCCKVPTVPPRNFEKPT [N53A]

Variants of: B2
Settings: with cbl_human CBL
Remark: another data set of the same source

effect of a mutation on the interaction	Variant
decreasing interaction	MEARAQSGNGSQPLLQTPRDGGRQRGEPDPRDALTQQVHVLSLDQIRAIRNTNEYTEGATVVPRPGLKPAPRPSTQHKHERLHGLPEHRQPPRLQHSQVHSSARAPLSRSISTVSSGSRSSTRTSTSSSSSEQRLLGSSFSSGPVADGIIRVQPKSELKPGELKPLSKEDLGLHAYRCEDCGKCKCKECTYPRPLPSDWICDKQCLCSAQNVIDYGTCVCCVKGLFYHCSNDDEDNCADNPCSCSQSHCCTRWSAMGVMSLFLPCLWCYLPAKGCLKLCQGCYDRVNRPGCRCKNSNTVCCKVPTVPPRNFEKPT [P59A]

Variants of: B2
Settings: with cbl_human CBL
Remark: another data set of the same source

effect of a mutation on the interaction	Variant
disrupting interaction	MEARAQSGNGSQPLLQTPRDGGRQRGEPDPRDALTQQVHVLSLDQIRAIRNTNEFTEGPTVVPRPGLKPAPRPSTQHKHERLHGLPEHRQPPRLQHSQVHSSARAPLSRSISTVSSGSRSSTRTSTSSSSSEQRLLGSSFSSGPVADGIIRVQPKSELKPGELKPLSKEDLGLHAYRCEDCGKCKCKECTYPRPLPSDWICDKQCLCSAQNVIDYGTCVCCVKGLFYHCSNDDEDNCADNPCSCSQSHCCTRWSAMGVMSLFLPCLWCYLPAKGCLKLCQGCYDRVNRPGCRCKNSNTVCCKVPTVPPRNFEKPT [Y55F]
